The text below walks through data of PMC4644235 (Cell, 2015).

B1: Thp1(170-455) (domain or fragment)
chain: GKQRILLYLVNKLNNIYFRIESPQLCSNIFKNFQPKSMLAHFNEYQLDQQIEYRYLLGRYYLLNSQVHNAFVQFNEAFQSLLNLPLTNQAITRNGTRILNYMIPTGLILGKMVKWGPLRPFLSQETIDNWSVLYKHVRYGNIQGVSLWLRQNERHLCARQLLIVLLEKLPMVTYRNLIKTVIKSWTTEWGQNKLPYSLIERVLQLSIGPTFEDPGAQEITIYNGIHSPKNVENVLVTLINLGLLRANCFPQLQLCVVKKTTMIQEIVPPVNERITKMFPAHSHVLW

One experiment has as its target T1, Sac3(222-572) (S. cerevisiae, UniProt P46674 222-572).
T1 sequence: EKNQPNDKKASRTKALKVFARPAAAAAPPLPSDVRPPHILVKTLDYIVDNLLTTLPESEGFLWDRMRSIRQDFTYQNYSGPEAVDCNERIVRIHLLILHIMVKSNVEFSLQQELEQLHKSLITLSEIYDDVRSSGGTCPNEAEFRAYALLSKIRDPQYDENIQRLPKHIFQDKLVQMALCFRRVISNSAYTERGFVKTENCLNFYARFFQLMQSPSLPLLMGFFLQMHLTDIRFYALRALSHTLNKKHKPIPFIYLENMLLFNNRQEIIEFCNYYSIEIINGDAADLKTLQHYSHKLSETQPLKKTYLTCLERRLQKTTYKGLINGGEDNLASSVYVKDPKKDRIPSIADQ
Briefly: crystal structure.

The target of the experiment “Thp1(170-455)” is B1. In words: crystal structure.

In the case of B1, the binding result with Sac3(222-572) is on record as “binds”.

B2: Sem1 (natural protein)
chain: MSTDVAAAQAQSKIDLTKKKNEEINKKSLEEDDEFEDFPIDTWANGETIKSNAVTQTNIWEENWDDVEVDDDFTNELKAELDRYKRENQ
In the case of B2, the binding result with Thp1(170-455) is reported as “binds”.
